# Laboratory results: PMC5012629 (International Journal of Nanomedicine, 2016)
# Assays:
# [1] = biological target: T1, Full length untagged human MDM2 (Murine double minute 2) (human, UniProt Q00987 1-491); experiment: atomic force spectroscopy
# [2] = biological target: T1, Full length untagged human MDM2 (Murine …); experiment: SPR
# T1 sequence (Q00987 whole entry): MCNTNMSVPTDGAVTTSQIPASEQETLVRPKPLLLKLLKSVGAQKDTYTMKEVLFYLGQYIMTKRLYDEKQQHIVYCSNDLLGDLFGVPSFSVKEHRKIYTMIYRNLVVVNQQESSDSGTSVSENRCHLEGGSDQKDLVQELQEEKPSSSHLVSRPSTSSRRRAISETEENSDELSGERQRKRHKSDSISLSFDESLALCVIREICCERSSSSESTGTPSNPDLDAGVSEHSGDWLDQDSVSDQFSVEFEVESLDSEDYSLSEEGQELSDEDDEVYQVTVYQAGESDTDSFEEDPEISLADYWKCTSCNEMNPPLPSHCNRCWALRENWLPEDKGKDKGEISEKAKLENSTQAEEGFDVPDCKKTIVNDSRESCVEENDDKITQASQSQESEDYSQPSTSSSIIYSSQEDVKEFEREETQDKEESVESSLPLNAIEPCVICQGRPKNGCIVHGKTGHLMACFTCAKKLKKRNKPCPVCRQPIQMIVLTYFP
binder,measurement,setting,value
"Full length N-terminal glutathione S-transferase (GST)-tagged human MDM4 (Murine double minute 4) (natural protein, UniProt O15151 1-490, looked up) MTSFSTSAQCSTSDSACRISPGQINQVRPKLPLLKILHAAGAQGEMFTVKEVMHYLGQYIMVKQLYDQQEQHMVYCGGDLLGELLGRQSFSVKDPSPLYDMLRKNLVTLATATTDAAQTLALAQDHSMDIPSQDQLKQSAEESSTSRKRTTEDDIPTLPTSEHKCIHSREDEDLIENLAQDETSRLDLGFEEWDVAGLPWWFLGNLRSNYTPRSNGSTDLQTNQDVGTAIVSDTTDDLWFLNESVSEQLGVGIKVEAADTEQTSEEVGKVSDKKVIEVGKNDDLEDSKSLSDDTDVEVTSEDEWQCTECKKFNSPSKRYCFRCWALRKDWYSDCSKLTHSLSTSDITAIPEKENEGNDVPDCRRTISAPVVRPKDAYIKKENSKLFDPCNSVEFLDLAHSSESQETISSMGEQLDNLSEQRTDTENMEDCQNLLKPCSLCEKRPRDGNIIHGRTGHLVTCFHCARRLKKAGASCPICKKEIQLVIKVFIA",koff,[1],0.02 ± 0.01 s⁻¹
same,Kd,[2],2000 nM
